In article PMC3702631 (Structure (London, England : 1993), 2013):

Molecular target: the molecule itself
Assay: SEC

Row | Protein | stoichiometry N
1 | mouse TBK1 residues 1-657, K38A (GST tag cleaved) (domain or fragment, UniProt Q9WUN2 1-657, looked up) MQSTSNHLWLLSDILGQGATANVFRGRHKKTGDLYAVAVFNNISFLRPVDVQMREFEVLKKLNHKNIVKLFAIEEETTTRHKVLIMEFCPCGSLYTVLEEPSNAYGLPESEFLIVLRDVVGGMNHLRENGIVHRDIKPGNIMRVIGEDGQSVYKLTDFGAARELEDDEQFVSLYGTEEYLHPDMYERAVLRKDHQKKYGATVDLWSVGVTFYHAATGSLPFRPFEGPRRNKEVMYKIITGKPSGAISGVQKAENGPIDWSGDMPLSCSLSQGLQALLTPVLANILEADQEKCWGFDQFFAETSDVLHRMVIHVFSLQHMTAHKIYIHSYNTAAVFHELVYKQTKIVSSNQELIYEGRRLVLELGRLAQHFPKTTEENPIFVTSREQLNTVGLRYEKISLPKIHPRYDLDGDASMAKAVTGVVCYACRTASTLLLYQELMRKGVRWLVELVKDDYNETVHKKTEVVITLDFCIRNIEKTVKVYEKLMKVNLEAAELGEISDIHTKLLRLSSSQGTIESSLQDISSRLSPGGLLADTWAHQEGTHPRDRNVEKLQVLLNCITEIYYQFKKDKAERRLAYNEEQIHKFDKQKLYYHATKAMSHFSEECVRKYEAFKDKSEEWMRKMLHLRKQLLSLTNQCFDIEEEVSKYQDYTNELQET | 2
2 | mouse TBK1 residues 1-657, S172A (GST tag cleaved) (domain or fragment, UniProt Q9WUN2 1-657, looked up) MQSTSNHLWLLSDILGQGATANVFRGRHKKTGDLYAVKVFNNISFLRPVDVQMREFEVLKKLNHKNIVKLFAIEEETTTRHKVLIMEFCPCGSLYTVLEEPSNAYGLPESEFLIVLRDVVGGMNHLRENGIVHRDIKPGNIMRVIGEDGQSVYKLTDFGAARELEDDEQFVALYGTEEYLHPDMYERAVLRKDHQKKYGATVDLWSVGVTFYHAATGSLPFRPFEGPRRNKEVMYKIITGKPSGAISGVQKAENGPIDWSGDMPLSCSLSQGLQALLTPVLANILEADQEKCWGFDQFFAETSDVLHRMVIHVFSLQHMTAHKIYIHSYNTAAVFHELVYKQTKIVSSNQELIYEGRRLVLELGRLAQHFPKTTEENPIFVTSREQLNTVGLRYEKISLPKIHPRYDLDGDASMAKAVTGVVCYACRTASTLLLYQELMRKGVRWLVELVKDDYNETVHKKTEVVITLDFCIRNIEKTVKVYEKLMKVNLEAAELGEISDIHTKLLRLSSSQGTIESSLQDISSRLSPGGLLADTWAHQEGTHPRDRNVEKLQVLLNCITEIYYQFKKDKAERRLAYNEEQIHKFDKQKLYYHATKAMSHFSEECVRKYEAFKDKSEEWMRKMLHLRKQLLSLTNQCFDIEEEVSKYQDYTNELQET | 2
